In publication PMC5974087, “The RPAP3-Cterminal domain identifies R2TP-like quaternary chaperones” (Nature Communications, 2018):

Target: T1, recombinant RUVBL1-RUVBL2 complex (His_RUVBL1_Flag_RUVBL2) (human, UniProt Q9Y265 1-456; Q9Y230 1-463)
T1 construct: Purified predominantly as a dodecamer; hetero-hexamers and hetero-dodecamers in native MS; the SPR fit counts one hexamer; The methods tell different things of the RUVBL2 tag (N-terminal FLAG with TEV site; 3xFLAG in the NMR methods); also called RUVBL1/2; RUVBL1/2 hetero-multimers; source: E. coli (DE3), co-expressed, purified (HisTrap, anti-Flag M2 gel, Superdex S200, Superose 6); not shown: …
T1 sequence (Q9Y265 whole entry, chain 1 of 2): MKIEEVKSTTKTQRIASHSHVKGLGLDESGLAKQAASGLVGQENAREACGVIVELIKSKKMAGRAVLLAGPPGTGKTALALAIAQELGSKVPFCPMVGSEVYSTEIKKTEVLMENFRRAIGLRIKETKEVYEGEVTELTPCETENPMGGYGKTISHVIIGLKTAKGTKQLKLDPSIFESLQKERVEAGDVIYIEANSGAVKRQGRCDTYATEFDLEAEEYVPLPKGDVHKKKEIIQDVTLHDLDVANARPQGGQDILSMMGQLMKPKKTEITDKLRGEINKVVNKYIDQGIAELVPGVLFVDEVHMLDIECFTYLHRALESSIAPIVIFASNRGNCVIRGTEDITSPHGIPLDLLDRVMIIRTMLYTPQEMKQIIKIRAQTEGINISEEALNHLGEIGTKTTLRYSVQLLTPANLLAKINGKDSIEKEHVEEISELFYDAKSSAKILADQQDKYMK
T1 sequence (Q9Y230 whole entry, chain 2 of 2): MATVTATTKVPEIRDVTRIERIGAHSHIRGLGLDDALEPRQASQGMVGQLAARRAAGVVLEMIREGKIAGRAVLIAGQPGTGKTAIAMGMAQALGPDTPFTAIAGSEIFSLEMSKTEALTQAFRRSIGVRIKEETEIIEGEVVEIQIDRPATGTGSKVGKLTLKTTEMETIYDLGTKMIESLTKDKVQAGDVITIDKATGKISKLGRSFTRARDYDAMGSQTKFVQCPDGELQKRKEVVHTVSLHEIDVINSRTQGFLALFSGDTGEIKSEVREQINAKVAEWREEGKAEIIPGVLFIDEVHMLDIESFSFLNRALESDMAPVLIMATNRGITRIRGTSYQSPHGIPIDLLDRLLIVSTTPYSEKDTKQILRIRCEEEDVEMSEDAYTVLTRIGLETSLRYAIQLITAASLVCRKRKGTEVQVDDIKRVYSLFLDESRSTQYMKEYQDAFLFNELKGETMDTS
Assay: SPR; RPAP3-Cter amine-coupled on CM5; RUVBL1-RUVBL2 complex injected, 10 concentrations up to 75.2 nM; 20 mM NaKPi pH 7.5, 150 mM NaCl, 5 mM MgCl2, 1 mM DTT, 0.05% P20; 25 °C; 1:1 Langmuir model counting one hexamer of RUVBL1/2; Biacore 4000
Details: both partners purified

Kd: 4.18 nM
koff: 0.00112 s⁻¹
kon: 297000 M⁻¹ s⁻¹
B1: RPAP3_(535-665), C-terminal domain of human RPAP3 (domain or fragment, UniProt Q9H6T3 535-665, looked up)
chain: AQFATTVLPPIPANSFQLESDFRQLKSSPDMLYQYLKQIEPSLYPKLFQKNLDPDVFNQIVKILHDFYIEKEKPLLIFEILQRLSELKRFDMAVMFMSETEKKIARALFNHIDKSGLKDSSVEELKKRYGG
modifications: 13C/15N isotope labelling in the NMR samples
notes: RPAP3, human, residues 535-665; numbering of isoform 1; Vector pnEA-3CH; also called RPAP3-Cter; RPAP3 C-terminal domain; source: E. coli (DE3) pRARE2, purified (TALON, HRV-3C cleavage, S75 size exclusion)
